Test results taken from patent publication US20140154252A1.

Columns and labels:
CD20 (human) [1] = biological target: CD20 (human) (UniProt P11836); assay: cell-based or functional assay
CD37 (human) [2] = biological target: T1, CD37 (human) (UniProt P11049); assay: cell-based or functional assay
T1 sequence (looked up): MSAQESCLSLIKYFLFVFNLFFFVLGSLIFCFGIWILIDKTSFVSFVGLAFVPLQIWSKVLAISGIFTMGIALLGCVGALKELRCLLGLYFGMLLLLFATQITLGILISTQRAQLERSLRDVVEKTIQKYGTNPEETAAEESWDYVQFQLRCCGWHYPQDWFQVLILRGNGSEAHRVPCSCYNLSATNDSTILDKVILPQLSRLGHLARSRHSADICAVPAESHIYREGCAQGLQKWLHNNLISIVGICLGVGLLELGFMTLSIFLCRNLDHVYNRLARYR

CD37 (human) [3] = biological target: T1, CD37 (human); assay: competition flow cytometry on Ramos B-cells; competitor FITC anti-CD37 antibody [lower graph (Detection of FITC-CD37 mAb]
CD20 (human) [4] = biological target: CD20 (human) (UniProt P11836); assay: competition flow cytometry on Ramos B-cells; competitor PE anti-CD20 antibody [upper graph (Detection of PE-CD20 mAb]

Chain of CD20 (human) (P11836 whole entry): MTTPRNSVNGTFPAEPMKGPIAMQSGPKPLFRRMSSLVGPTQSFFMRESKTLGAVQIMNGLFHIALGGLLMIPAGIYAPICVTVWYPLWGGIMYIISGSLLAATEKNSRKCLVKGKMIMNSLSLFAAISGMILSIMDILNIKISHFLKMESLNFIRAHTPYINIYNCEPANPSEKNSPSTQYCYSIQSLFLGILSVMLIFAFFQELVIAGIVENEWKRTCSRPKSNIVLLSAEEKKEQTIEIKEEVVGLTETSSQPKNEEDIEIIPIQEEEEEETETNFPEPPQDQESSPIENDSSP

IC50 (nM), direct growth inhibition of DoHH2 cells, 96 h, ATP detection (CD20 (human) [1]): 0.05 nM | IC50 (nM), direct growth inhibition of SU-DHL-6 cells, 96 h, ATP detection (CD20 (human) [1]): 0.05 nM | IC50 (nM), direct growth inhibition of DoHH2 cells, 96 h, ATP detection (CD37 (human) [2]): 0.05 nM | IC50 (nM), direct growth inhibition of SU-DHL-6 cells, 96 h, ATP detection (CD37 (human) [2]): 0.05 nM | IC50 (read off the curve) (CD37 (human) [3]): 2000 pM | IC50 (read off the curve) (CD20 (human) [4]): 5000 pM
Substance: CD20×CD37 bispecific scorpion (015×016) (bispecific antibody)
